# Source: patent publication US20240209099A1 (SUZHOU TRANSCENTA THERAPEUTICS, published 2024)
# Where “and” joins values, the source holds several entries; their conditions need not be identical. Equal values may be shown once.
# B1: 054 (mouse hybridoma antibody) (antibody, V domains shown)
# VH: EVQLVESGGDLVKPGGSLKLSCAASGFTFSMYGMSWVRQTPDKRLEWVASISIGGSYTYYADSVEGRFIISRENAKNTLFLQMNSLKSEDTALYYCARELDGNYDYWGQGTTLTVSS
# VL: HIMITQDELSNPVTFGESVSISCRSSKSLLYKDGKTYLNWFLQRPGQSPQLLIYLMSTRASGVSDRFSGSGSGTDFTLEISRVKAEDVGIYYCQQLVEYPFTFGSGTKLEIK
# notes: Mouse antibody purified from hybridoma; also called mAb054; 10D11
# B2: chimeric-DC101 (anti-mouse VEGFR2 antibody DC101 with human IgG1 Fc) (antibody, V domains shown)
# VH: EVQLVETGGGLVQPGNSLKLSCATSGFIFSTTWMNWIRQTPGKRLEWLAQIEDKSNNYFISYSESVKGRFTISRDDSKSSVYLQMNNLKEEDTAIYYCSWKYRSNYYFDYWGQGVMVTVSS
# VL: DIVLTQSPALAVSLEQRATISCKTSQNVDYYGISYLHWYQQKPGQQPKLLIYEGSNLASGIPARFSGSGSGTDFTLTIDPVEADDIVTYYCQQSKDYPYTFGAGTKLELKR
# Columns and labels:
# [1] = target: T1, Recombinant Human VEGFR2/KDR Protein, His tag (hVEGFR2-his) (human, UniProt P35968 20-764); assay: competition ELISA on coated hVEGFR2-his: hybridoma antibody titrated against 100 ng/ml chimeric 002C, anti-human IgG Fc-HRP
# T1 construct: Expressed in HEK293, bought from ACRO Biosystems; also called human VEGFR2-his; Human VEGFR2/KDR-His
# T1 sequence (P35968 other isoform, or with tags, fused parts or gaps): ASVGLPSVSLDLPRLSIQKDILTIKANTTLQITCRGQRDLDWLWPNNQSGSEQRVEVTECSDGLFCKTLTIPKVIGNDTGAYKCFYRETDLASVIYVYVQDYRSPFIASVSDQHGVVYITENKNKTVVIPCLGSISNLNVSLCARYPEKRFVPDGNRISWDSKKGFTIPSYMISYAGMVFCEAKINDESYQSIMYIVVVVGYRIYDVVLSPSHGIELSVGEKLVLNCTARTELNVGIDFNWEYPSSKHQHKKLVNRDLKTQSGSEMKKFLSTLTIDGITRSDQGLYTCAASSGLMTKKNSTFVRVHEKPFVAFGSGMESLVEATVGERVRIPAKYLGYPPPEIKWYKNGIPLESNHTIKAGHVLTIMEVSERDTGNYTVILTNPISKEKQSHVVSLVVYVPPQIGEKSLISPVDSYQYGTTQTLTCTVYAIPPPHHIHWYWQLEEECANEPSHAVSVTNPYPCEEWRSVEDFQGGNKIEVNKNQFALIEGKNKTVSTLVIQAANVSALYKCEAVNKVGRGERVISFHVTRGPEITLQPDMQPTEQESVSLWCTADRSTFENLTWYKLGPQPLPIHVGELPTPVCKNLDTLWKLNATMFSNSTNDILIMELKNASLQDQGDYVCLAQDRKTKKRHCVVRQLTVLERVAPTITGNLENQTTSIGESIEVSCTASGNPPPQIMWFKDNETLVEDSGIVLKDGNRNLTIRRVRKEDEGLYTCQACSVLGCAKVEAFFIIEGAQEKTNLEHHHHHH
# [2] = target: T1, Recombinant Human VEGFR2/KDR Protein, …; assay: SPR (Biacore), antibody captured by anti-Fc, antigen 2.5-80 nM; second entry for mAb054 10D11F4D1F6 (r13; r11 gives another run)
# Method: A CM5 sensor chip was activated in each flow cell by 7-min injection (10 μl/min) of freshly prepared 1:1 50 mM N-hydroxysuccinimide (NHS): 200 mM 1-ethyl-3-(3-dimethylaminopropyl)-carbodiimide (EDC). Then anti-human Fc antibody (GE Healthcare) in a concentration of 10 μg/ml in 10 mM sodium acetate buffer PH 5.0 was injected onto the activated chip at 10 μl/min (HBS-EP running buffer: 10 mM HEPES, 150 mM NaCl, 3.4 mM EDTA, 0.005% surfactant P20, pH 7.4). The remaining active coupling sites were blocked by 7 min injection of 1M ethanolamine at 10 μl/min. The immobilization level of each flow cell is ˜9000RU. Antibodies were captured in FC2 by anti-human Fc IgG or anti-mouse Fc (GE Healthcare) to 200˜300RU. FC1 was used as the reference cell. Antigen was injected at varying concentrations (2.5 nM, 5 nM, 10 nM, 20 nM, 40 nM and 80 nM) after capture of antibody. The association time for antibody binding antigen is 180s. Surface Regeneration condition is 120s at 10 μl/min in Gly pH1.5. The signals with captured antibody subtracted from those without captured antibody were calculated with Biacore X100 evaluation software ver. 2.0 (Biacore).
# [3] = target: T1, Recombinant Human VEGFR2/KDR Protein, …; assay: competition ELISA: hVEGFR2-his coated (1 ug/ml), antibody titrated, then 0.3 ug/ml hVEGF-A added and bound VEGF-A detected; blocked ligand hVEGF-A
# Method: High-binding clear polystyrene 96 well plates were coated with 100 μl/well of 1 μg/ml hVEGFR2-his overnight at 4° C. After washing and blocking, serial diluted antibodies (from 10 μg/ml to 0.0006 μg/ml) were added and incubate for 1 hour at RT. 0.3 μg/ml hVEGF-A (Acrobiosystem, Cat #VE5-H4210) were added and incubated for 2 hour at RT. Then 100 μl/well of 0.25 μg/ml Biotinylated Rabbit Anti-human VEGF-A (Peprotech, Cat #400-P10Bt) was then added for detecting bound VEGF-A. Then 100 μl/well of a solution of HRP conjugated Neutravidin antibody (Pierce, Cat #31001) and TMB were added sequentially. Finally, reaction was terminated using 0.64M H₂SO₄ and plates were read at 450 nm.
# [4] = target: T1, Recombinant Human VEGFR2/KDR Protein, …; assay: SPR (Biacore), antibody captured by anti-Fc, antigen 2.5-80 nM
# Procedure, shortened: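 Human or mouse Fc-captured antibody (200–300 RU) on anti-Fc CM5 surface; antigen injected at 2.5–80 nM in HBS-EP pH 7.4 with 180 s association. Reference-cell-subtracted sensorgrams; regeneration with glycine pH 1.5.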
# [5] = target: T1, Recombinant Human VEGFR2/KDR Protein, …; assay: ELISA, hVEGFR2-his coated
# Method: Same protocol of Example 2 antibody screening by ELISA assay. Briefly, 0.5 μg/ml hVEGFR2-his was coated and serially diluted purified antibodies would bind to coated antigen. Using HRP conjugated goat anti-mouse Fc antibody could detect binding signals of each antibody.
# The hybridoma antibodies have similar affinity to human.
# [6] = target: T2, human VEGFR2 on HUVEC cells (human, UniProt P35968 20-1356); assay: flow cytometry on HUVEC cells, percent shifted cells (Shift%), anti-mouse IgG-PE
# T2 construct: also called hVEGFR2 on HUVEC
# T2 sequence (P35968 20-1356 V297I/Q472H limits assumed): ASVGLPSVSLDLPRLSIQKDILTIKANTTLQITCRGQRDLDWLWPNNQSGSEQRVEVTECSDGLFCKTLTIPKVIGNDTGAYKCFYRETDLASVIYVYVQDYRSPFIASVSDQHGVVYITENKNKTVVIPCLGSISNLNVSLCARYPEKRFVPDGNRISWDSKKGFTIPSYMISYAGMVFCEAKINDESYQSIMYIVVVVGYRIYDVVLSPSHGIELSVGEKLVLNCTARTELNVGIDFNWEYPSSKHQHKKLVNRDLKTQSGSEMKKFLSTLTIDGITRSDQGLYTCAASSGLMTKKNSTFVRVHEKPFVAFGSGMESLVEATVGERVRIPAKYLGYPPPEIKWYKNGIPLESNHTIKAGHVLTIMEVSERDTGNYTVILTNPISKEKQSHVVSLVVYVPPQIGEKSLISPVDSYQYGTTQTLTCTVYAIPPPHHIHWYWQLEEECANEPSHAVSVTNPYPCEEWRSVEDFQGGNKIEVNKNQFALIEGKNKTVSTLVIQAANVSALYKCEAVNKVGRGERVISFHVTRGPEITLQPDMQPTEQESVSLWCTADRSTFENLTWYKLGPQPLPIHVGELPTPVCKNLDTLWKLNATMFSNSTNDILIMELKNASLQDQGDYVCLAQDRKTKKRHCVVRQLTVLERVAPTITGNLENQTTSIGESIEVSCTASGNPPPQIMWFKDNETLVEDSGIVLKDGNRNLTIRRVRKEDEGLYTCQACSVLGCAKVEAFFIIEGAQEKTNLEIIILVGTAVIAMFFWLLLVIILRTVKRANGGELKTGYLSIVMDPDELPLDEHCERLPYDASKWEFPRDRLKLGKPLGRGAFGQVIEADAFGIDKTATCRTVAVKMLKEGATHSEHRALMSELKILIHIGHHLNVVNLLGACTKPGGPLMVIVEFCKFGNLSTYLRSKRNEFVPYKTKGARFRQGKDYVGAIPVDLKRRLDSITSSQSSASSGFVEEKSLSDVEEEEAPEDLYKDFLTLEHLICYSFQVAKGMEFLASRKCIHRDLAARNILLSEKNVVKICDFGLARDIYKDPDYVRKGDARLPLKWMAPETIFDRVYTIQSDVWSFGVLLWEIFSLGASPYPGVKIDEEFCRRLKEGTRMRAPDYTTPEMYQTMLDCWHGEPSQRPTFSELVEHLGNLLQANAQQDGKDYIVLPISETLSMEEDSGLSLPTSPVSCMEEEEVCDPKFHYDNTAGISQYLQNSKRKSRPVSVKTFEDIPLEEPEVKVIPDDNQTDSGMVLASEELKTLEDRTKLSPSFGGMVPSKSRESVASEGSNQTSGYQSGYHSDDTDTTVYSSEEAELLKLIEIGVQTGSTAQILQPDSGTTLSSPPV
# Method: Log phase HUVEC cells were collected, counted and resuspended in FACS buffer (5% BSA+PBS). 2×10∧5 cells were added to each tube and then washed once with PBS (1500 rpm, 5 mins, RT). Then […] serial diluted VEGFR2 antibodies purified from hybridoma supernatant in FACS buffer were added into corresponding tubes and were incubated at 4° C. for 1 hr. The cells were then washed twice with 1 ml PBS, followed by adding 100 μl/tube of 2nd antibody (1:400 anti-mIgG (H+L)-PE, Cell signaling #8887) in FACS buffer. The cells were incubated at 4° C. for 0.5 hr and then washed twice with PBS, followed by resuspending cells in 600 μl PBS for each sample. The cells were then transferred into FACS tube and the bindings of the antibodies to the cells were detected using flow cytometry (BD Accuri C6) (see FIG. 3).
# The percentage of positive binding cells was calculated and fit by Graphpad Prism Software.
# mouse VEGFR2 [7] = target: T3, mouse VEGFR2 (mouse, UniProt P35918 20-762, limits assumed); assay: ELISA, 500 ng/mL mouse VEGFR2 coated, three lots
# T3 sequence (P35918 20-762 limits assumed): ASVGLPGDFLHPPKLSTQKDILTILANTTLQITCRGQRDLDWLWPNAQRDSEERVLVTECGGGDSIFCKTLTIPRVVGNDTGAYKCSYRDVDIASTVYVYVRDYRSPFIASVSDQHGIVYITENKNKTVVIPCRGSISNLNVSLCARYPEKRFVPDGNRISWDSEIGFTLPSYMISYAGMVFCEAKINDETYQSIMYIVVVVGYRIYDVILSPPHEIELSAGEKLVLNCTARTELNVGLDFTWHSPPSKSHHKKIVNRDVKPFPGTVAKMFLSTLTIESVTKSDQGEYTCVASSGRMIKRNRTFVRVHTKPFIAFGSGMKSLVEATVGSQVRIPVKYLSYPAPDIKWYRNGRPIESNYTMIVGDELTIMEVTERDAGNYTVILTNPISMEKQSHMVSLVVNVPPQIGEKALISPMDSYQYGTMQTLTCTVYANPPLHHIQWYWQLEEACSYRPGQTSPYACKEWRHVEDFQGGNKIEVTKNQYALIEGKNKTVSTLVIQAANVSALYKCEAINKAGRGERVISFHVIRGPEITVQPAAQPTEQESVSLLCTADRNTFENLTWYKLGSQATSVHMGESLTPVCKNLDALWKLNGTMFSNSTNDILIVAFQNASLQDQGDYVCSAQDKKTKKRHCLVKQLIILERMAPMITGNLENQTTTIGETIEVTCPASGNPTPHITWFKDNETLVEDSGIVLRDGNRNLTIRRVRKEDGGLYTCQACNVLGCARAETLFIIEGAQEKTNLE
# Method: (§1) ELISA binding assay was conducted to confirm its binding affinity. Briefly, ELISA plates were coated with 500 ng/mL mouse VEGFR2 in coating buffer (0.16% Na₂CO₃, 0.30% NaHCO₃) and incubated at 4° C. overnight. After twice washing, blocking buffer (1% BSA, 1% goat serum, 0.05% Tween20 in PBS) was added and plates were incubated at room temperature for 2 hours. After three times washing, serial diluted chimeric-DC101 was added in dilution buffer (1% BSA, 1% goat serum, 0.01% Tween20 in PBS) and plates were incubated at room temperature for 3 hours. After three times washing, goat anti-human HRP (1:5000 diluted) was added and plates were incubated at room temperature for 1 hour. Finally, after three times washing, TMB was added and 4 mins later 0.16 mol/L sulfuric acid was added to terminate the reaction. OD450 nm was read and recorded.
# mouse VEGFR2 [8] = target: T3, mouse VEGFR2; assay: ELISA, mouse VEGFR2 coated (500 ng/mL), goat anti-human HRP
# Method: as §1
# mouse VEGFR2 [9] = target: T3, mouse VEGFR2; assay: competition ELISA: human VEGF165 coated (250 ng/mL), antibody titrated with 1000 ng/mL mouse VEGFR2, bound mouse VEGFR2 detected; blocked ligand human VEGF165
# Method: ELISA blocking assay was conducted to confirm its VEGF blockade activity. Briefly, ELISA plates were coated with 250 ng/mL recombinant human VEGF165 in coating buffer and incubated at 4° C. overnight. After twice washing, blocking buffer was added and plates were incubated at room temperature for 2 hours. After three times washing, serial diluted chimeric-DC101 was added in dilution buffer and then 1000 ng/mL mouse VEGFR2 was added. Plates were incubated at room temperature for 3 hours. After three times washing, polyclonal anti-mouse VEGFR2 with mouse Fc (1: 1000) was added and plates were incubated at room temperature for 1 hour. After three times washing, goat anti-mouse HRP (1:5000 diluted) was added and plates were incubated at room temperature for 1 hour. Finally, after three times washing, TMB was added and 4 mins later 0.16 mol/L sulfuric acid was added to terminate the reaction. OD450 nm was read and recorded.
Binder,IC50 (read off the curve) [1] [µg/mL],koff [2] [s⁻¹],IC50 [3] [µg/mL],koff [4] [s⁻¹],kon [4],EC50 [5] [µg/mL],EC50 [6] [µg/mL],EC50 (mouse VEGFR2 [7]) [µg/mL],EC50 (mouse VEGFR2 [8]),IC50 (mouse VEGFR2 [9])
B1,~0.1,1.22e-05,0.0433,9.12e-05,91800 M⁻¹ s⁻¹ and 97000 M⁻¹ s⁻¹,0.00809,0.0612,,,
B2,,,,,,,,~0.06,0.0645 µg/mL and 0.0477 µg/mL and 0.0764 µg/mL,0.301 µg/mL and 0.28 µg/mL and 0.265 µg/mL
